In this experiment the test system is carrageenan-induced Paw edema. Briefly: carrageenan-induced paw edema (CPE) model in mice. Format: in vivo, CD-1 mice. The settings on record: 3 mpk. The text has this:
This test is a rapid in vivo model for evaluation of anti-inflammatory efficacy of test articles. The CPE model in mice quantitativdy assesses inhibition of edema enduced by subplantarinjection of carrageenan. […] Carrageenan-induced inflammation invoves extravasation of polymorphonuclear leukocytes from circulation to the site of inflammation. The subsequent release of myeloperoxidase and other cytokines within the interstitial tissues results in plasma exudation into the site of inflammation. The increased paw volume is measured by water displacement. Anti-inflammatory drugs reduce the paw edema.
• 1. Receive (SOP 1910, SOP 1920) and quarantine (SOP 560) 125 CD-1 mice (Charles River Laboratories, male, 5-6 weeks old). • 2. Animals are ear tagged (SOP 810), weighed, and sorted into 9 groups with 10 animals/group and 5 groups of 7 animals/group based upon average body weight. • 3. Prepare 3% carrageenan solution: • 1) Preparation at least 2 weeks in advance of use. • 2) Weigh out 600 mg A-carrageenan into a glass beaker. • 3) Add 20 ml deionized water. • 4) Stir on mild heat until carrageenan fully dissolved. • 5) Cool solution to ambient temperature. • 6) Store at 4-8° C. • 4. Until the day of use the renalase peptides are stored at -20° C. as dry powder. • 5. DAY 0 • a. Prepare test material in sterile saline (vehicle). • b. On the day of dosing, renalase peptides are dissolved. • c. On day prior to administration check carrageenan solution for clarity (no visible evidence of contamination). • 1) Equilibrate carrageenan to ambient temperature. • d. Record mouse weights in laboratory notebook. • e. Measure and record paw initial paw volumes: • 1) Place beaker of water on balance and tare to zero. • 2) Place right hind limb in the beaker of water on the scale with the top of the hock centered in the meniscus of the water. Record read-out on the scale. • 3) The foot must be dried after each measurement as wet feet will change the readout. • 4) Re-tare the scale between measurements to account for decrease in water volume. • f. […]
The test was also conducted to compare the inhibition of inflammation by peptide 10 as compared to the corresponding peptide fragment without the alanine substitution at position 220 (peptide 81).
In general terms: The carrageenan paw model is a standard test of acute inflammation.

Marks after values point to notes of the source that are not given here.

B1: Renalase: RNLS is a 37 kD secretory protein that is primarily made by kidney proximal renal tubules cells (protein, UniProt Q5VYX0 18-342, looked up)
Renalase: ALLRRQTSGPLYLAVWDKAEDSGGRMTTACSPHNPQCTADLGAQYITCTPHYAKKHQRFYDELLAYGVLRPLSSPIEGMVMKEGDCNFVAPQGISSIIKHYLKESGAEVYFRHRVTQINLRDDKWEVSKQTGSPEQFDLIVLTMPVPEILQLQGDITTLISECQRQQLEAVSYSSRYALGLFYEAGTKIDVPWAGQYITSNPCIRFVSIDNKKRNIESSEIGPSLVIHTTVPFGVTYLEHSIEDVQELVFQQLENILPGLPQPIATKCQKWRHSQVTNAAANCPGQMTLHHKPFLACGGDGFTQSNFDGCITSALCVLEALKNYI
Regarding B1, the “percent change from control, paw edema, 2 hr after carrageenan” value (2 hr after carrageenan) is on record as 60.1* percent. The “percent change from control, paw edema, 4 hr after carrageenan” value (4 hr after carrageenan) was 35.3* percent. The “percent change from control, paw edema, 6 hr after carrageenan” value (6 hr after carrageenan) came to 4.5%. Besides, the “percent change from control, paw edema, 10 hr after carrageenan” value (10 hr after carrageenan) was 23.7%.

The values are drawn from US20230190883A1, “STABLE PEPTIDES HAVING RENALASE AGONIST ACTIVITY” (Bessor Pharma, LLC, priority 2020, published 2023).
